Assays:
[1] = target: T1, NBD (nonamer binding domain of RAG1) (mouse, UniProt P15919 384-461); assay: BLI; 1x PBS, 30 C, 1:1 fit; NBD EMSA: 10 mM Tris-HCl pH 7.5, 33 mM KCl, 5 mM CaCl2, 2 mM DTT, 0.1 mg/ml BSA, 6% glycerol, 15 min 30 C; cRAG EMSA: 22.5 mM MOPS-KOH pH 7.0, 20% DMSO, 2.2 mM; details: protein: recombinant; tags: N-terminal His6 (pET28a); label: 5' biotin
T1 sequence: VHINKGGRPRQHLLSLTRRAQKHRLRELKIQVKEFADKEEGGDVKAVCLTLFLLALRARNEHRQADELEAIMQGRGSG

[2] = target: T1, NBD (nonamer binding domain of RAG1); assay: EMSA; 5 mM Ca2+; NBD EMSA: 10 mM Tris-HCl pH 7.5, 33 mM KCl, 5 mM CaCl2, 2 mM DTT, 0.1 mg/ml BSA, 6% glycerol, 15 min 30 C; cRAG EMSA: 22.5 mM MOPS-KOH pH 7.0, 20% DMSO, 2.2 mM; details: protein: recombinant, tags: N-terminal His6 (pET28a)
[3] = target: T2, MBP-cRAG1 (core RAG1);cRAG2 (core RAG2) (mouse?;mouse?, UniProt P15919;P21784 384-1040;1-383, |); assay: EMSA; cRAG buffer; NBD EMSA: 10 mM Tris-HCl pH 7.5, 33 mM KCl, 5 mM CaCl2, 2 mM DTT, 0.1 mg/ml BSA, 6% glycerol, 15 min 30 C; cRAG EMSA: 22.5 mM MOPS-KOH pH 7.0, 20% DMSO, 2.2 mM; details: protein: recombinant;recombinant, tags: MBP;MBP, chain copies: 2;2
T2 sequence 1: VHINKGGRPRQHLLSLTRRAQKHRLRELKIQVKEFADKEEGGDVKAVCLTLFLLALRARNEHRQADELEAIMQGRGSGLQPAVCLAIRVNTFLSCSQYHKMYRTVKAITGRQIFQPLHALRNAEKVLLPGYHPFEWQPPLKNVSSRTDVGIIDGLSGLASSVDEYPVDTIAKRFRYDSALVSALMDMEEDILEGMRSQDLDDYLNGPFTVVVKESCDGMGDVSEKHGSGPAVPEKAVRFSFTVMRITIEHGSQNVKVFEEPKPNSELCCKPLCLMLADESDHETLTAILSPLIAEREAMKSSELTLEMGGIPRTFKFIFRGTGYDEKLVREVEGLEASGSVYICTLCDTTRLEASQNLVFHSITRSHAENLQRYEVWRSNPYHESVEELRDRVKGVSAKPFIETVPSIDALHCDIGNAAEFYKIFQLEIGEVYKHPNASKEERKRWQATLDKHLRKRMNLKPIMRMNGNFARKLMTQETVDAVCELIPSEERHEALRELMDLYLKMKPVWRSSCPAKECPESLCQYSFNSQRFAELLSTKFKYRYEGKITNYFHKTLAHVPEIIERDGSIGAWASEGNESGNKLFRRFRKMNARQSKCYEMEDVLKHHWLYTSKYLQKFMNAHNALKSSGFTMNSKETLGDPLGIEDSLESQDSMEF
T2 sequence 2: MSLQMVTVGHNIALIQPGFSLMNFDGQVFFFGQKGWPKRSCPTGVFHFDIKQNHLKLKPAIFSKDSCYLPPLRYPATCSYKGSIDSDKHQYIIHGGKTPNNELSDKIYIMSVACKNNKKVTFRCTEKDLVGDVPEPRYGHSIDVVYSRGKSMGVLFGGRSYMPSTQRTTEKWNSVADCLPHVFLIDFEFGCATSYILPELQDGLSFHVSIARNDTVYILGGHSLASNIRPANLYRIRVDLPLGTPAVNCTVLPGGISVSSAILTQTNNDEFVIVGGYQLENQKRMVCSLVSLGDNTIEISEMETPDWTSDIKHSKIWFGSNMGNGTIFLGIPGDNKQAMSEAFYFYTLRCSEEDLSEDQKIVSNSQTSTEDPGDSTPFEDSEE

[4] = target: T1, NBD (nonamer binding domain of RAG1); assay: EMSA; 5 mM Ca2+; no significant binding; NBD EMSA: 10 mM Tris-HCl pH 7.5, 33 mM KCl, 5 mM CaCl2, 2 mM DTT, 0.1 mg/ml BSA, 6% glycerol, 15 min 30 C; cRAG EMSA: 22.5 mM MOPS-KOH pH 7.0, 20% DMSO, 2.2 mM; details: protein: recombinant; tags: N-terminal His6 (pET28a); label: 5' 32P on DR59; 6 nt T/T bubble, blunt ends
[5] = label: 5' 32P on NM32, 6 nt T/T bubble, blunt ends
[6] = label: 5' 32P on AKN1, 5' overhang 1 nt at both ends
[7] = label: 5' 32P, 6 nt T/T bubble, blunt ends
[8] = label: 5' 32P, 6 nt C/C bubble, blunt ends
[9] = label: 5' 32P, 6 nt A/A bubble, blunt ends
[10] = label: 5' 32P, 6 nt G/G bubble, blunt ends, intermolecular G4 in K+ buffer

Binder: TTTTTTTTTTTTTTTTTTTTTTTTTTTTTTTTTTT (ssDNA) [biotinylated poly T 35]
- Kd [1]: 450 nM

B1: T/T bubble with nonamer (VII, NM32/NM33) (dsDNA)
DNA 1: GACCTGAGGGCGAGCTTTTTTCGAGTAACTTAAACAAAAACCCTGCT
DNA 2: AGCAGGGTTTTTGTTTAAGTTACTCGTTTTTTGCTCGCCCTCAGGTC
- binding result [2, 5]: binds
- binding result [3, 5]: binds

B2: T/T bubble with scrambled nonamer (XXXVII, DR59/DR60) (dsDNA)
DNA 1: GACCTGAGGGCGAGCTTTTTTCGAGTAACTTAAGCGGAGGTCCTGCT
DNA 2: AGCAGGACCTCCGCTTAAGTTACTCGTTTTTTGCTCGCCCTCAGGTC
- binding result [4]: no binding

B3: random dsDNA MN37/MN38 (XV or XVI) (dsDNA)
DNA 1: CCTCTCCCCCTCCCCTCCCCTCCCTCGCGC
DNA 2: GCGCGAGGGAGGGGAGGGGAGGGGGAGAGG
- binding result ([2]; label: 5' 32P on MN37, blunt): no binding

B4: random dsDNA MN45/MN46 (XV or XVI) (dsDNA)
DNA 1: AGAAGGGGGAGGGGAGGGAGAGAGGGGGCGCCG
DNA 2: CGGCGCCCCCTCTCTCCCTCCCCTCCCCCTTCT
- binding result ([2]; label: 5' 32P on MN45, blunt): no binding

Binder: TTTTTTTTTT (ssDNA) [poly T 10 (MS103)]
- binding result ([2]; label: 5' 32P): no binding

Binder: TTTTTTTTTTTTTTTT (ssDNA) [poly T 16 (MS102)]
- binding result ([2]; label: 5' 32P): no binding

Binder: TTTTTTTTTTTTTTTTTTTTTT (ssDNA) [poly T 22 (MS100)]
- binding result ([2]; label: 5' 32P): no binding

Binder: TTTTTTTTTTTTTTTTTTTTTTTTTTTT (ssDNA) [poly T 28 (MS101)]
- binding result ([2]; label: 5' 32P): binds

B5: poly T 75 (MS6) (ssDNA)
DNA: TTTTTTTTTTTTTTTTTTTTTTTTTTTTTTTTTTTTTTTTTTTTTTTTTTTTTTTTTTTTTTTTTTTTTTTTTT
- binding result ([2]; label: 5' 32P): binds

Binder: GAGTCTGATCTTACCTCTTAACTTCGCTACTTTTT (ssDNA) [XXVII, 5 T at 3' end (MS12)]
- binding result ([2]; label: 5' 32P): binds

Binder: GAGTCTGATCTTACCTCTTAACTTCTTTTTTTTTT (ssDNA) [XXVIII, 10 T at 3' end (MS14)]
- binding result ([2]; label: 5' 32P): binds

Binder: GAGTCTGATCTTACCTCTTATTTTTTTTTTTTTTT (ssDNA) [XXIX, 15 T at 3' end (MS16)]
- binding result ([2]; label: 5' 32P): binds

Binder: GAGTCTGATCTTACCTTTTTTTTTTTTTTTTTTTT (ssDNA) [XXX, 20 T at 3' end (MS18)]
- binding result ([2]; label: 5' 32P): binds

Binder: TTTTTTTTTTGAGTCGGATCTTACGTCGTAACTTCGCTAC (ssDNA) [XXXI, 10 T at 5' end (MS22)]
- binding result ([2]; label: 5' 32P): binds

B6: 12RSS (I, AKN1/AKN2) (dsDNA)
DNA 1: GATCAGCTGATAGCTACCACAGTGCTACAGACTGGAACAAAAACCCTGCT
DNA 2: TAGCAGGGTTTTTGTTCCAGTCTGTAGCACTGTGGTAGCTATCAGCTGAT
- binding result [2, 6]: binds
- binding result [3, 6]: binds

Binder: CTGTTAAGTTACTCGAAAAAAGCTCGCCCTCAGGTC (ssDNA) [XXXIII, ssDNA lacking T stretch]
- binding result ([2]; label: 5' 32P): no binding

B7: A/T 10 bp (MS103/DR38) (dsDNA)
DNA 1: TTTTTTTTTT
DNA 2: AAAAAAAAAA
- binding result ([2]; label: 5' 32P, blunt): no binding

B8: A/T 16 bp (MS102/DR39) (dsDNA)
DNA 1: TTTTTTTTTTTTTTTT
DNA 2: AAAAAAAAAAAAAAAA
- binding result ([2]; label: 5' 32P, blunt): no binding

B9: A/T 22 bp (MS100/DR40) (dsDNA)
DNA 1: TTTTTTTTTTTTTTTTTTTTTT
DNA 2: AAAAAAAAAAAAAAAAAAAAAA
- binding result ([2]; label: 5' 32P, blunt): no binding

B10: A/T 28 bp (MS101/DR41) (dsDNA)
DNA 1: TTTTTTTTTTTTTTTTTTTTTTTTTTTT
DNA 2: AAAAAAAAAAAAAAAAAAAAAAAAAAAA
- binding result ([2]; label: 5' 32P, blunt): binds

B11: T/T bubble heteroduplex (AKN11/SCR252) (dsDNA)
DNA 1: GACCTGAGGGCGAGCTTTTTTCGAGTAACTTAACAG
DNA 2: CTGTTAAGTTACTCGTTTTTTGCTCGCCCTCAGGTC
- binding result [2, 7]: no binding
- binding result [3, 7]: binds

B12: C/C bubble heteroduplex (AKN46/AKN20) (dsDNA)
DNA 1: GACCTGAGGGCGAGCCCCCCCCGAGTAACTTAACAG
DNA 2: CTGTTAAGTTACTCGCCCCCCGCTCGCCCTCAGGTC
- binding result [2, 8]: no binding
- binding result [3, 8]: binds

B13: A/A bubble heteroduplex (AKN18/AKN45) (dsDNA)
DNA 1: CTGTTAAGTTACTCGAAAAAAGCTCGCCCTCAGGTC
DNA 2: GACCTGAGGGCGAGCAAAAAACGAGTAACTTAACAG
- binding result [2, 9]: no binding
- binding result [3, 9]: no binding

B14: G/G bubble heteroduplex (V, AKN47/AKN48) (dsDNA)
DNA 1: GACCTGAGGGCGAGCGGGGGGCGAGTAACTTAACAG
DNA 2: CTGTTAAGTTACTCGGGGGGGGCTCGCCCTCAGGTC
- binding result [2, 10]: no binding
- binding result [3, 10]: no binding

Binder: TTTTTTTTTTTTTTTTTTTTTTTTTTTTTTTTTTT (ssDNA) [ss poly T 35 (MS3)]
- binding result ([3]; label: 5' 32P): no binding
